Patent US20250257133A1 (ADAGENE PTE, published 2025)

Columns and labels:
[1] = molecular target: T1, TROP2 on tumor cell lines (UniProt P09758 27-323, limits assumed); test: flow cytometry, NCI-N87 cells
T1 construct: whole, on cells; also called tumor-associated calcium signal transducer 2; TROP2 on H292, NCI-N87, HT-29
T1 sequence (looked up): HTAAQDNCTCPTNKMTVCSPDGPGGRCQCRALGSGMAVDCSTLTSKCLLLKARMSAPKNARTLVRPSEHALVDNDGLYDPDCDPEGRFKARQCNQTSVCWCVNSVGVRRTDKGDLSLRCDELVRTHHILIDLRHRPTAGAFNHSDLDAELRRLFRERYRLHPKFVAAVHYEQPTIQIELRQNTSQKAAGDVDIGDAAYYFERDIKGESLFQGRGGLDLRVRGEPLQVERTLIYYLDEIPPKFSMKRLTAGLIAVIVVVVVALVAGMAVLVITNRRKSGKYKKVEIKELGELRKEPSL
Protocol: (§1) H292, NCI-N87, or HT29 cells were cultured and seeded in 96-well plates at 1.0×10⁵ cells/well and incubated with serially diluted test anti-TROP2 BsAbs for 30 minutes at 4° C. in 2% FBS/RPMI1640 buffer. Next, the cells were washed twice with DPBS and further incubated with secondary anti-human IgG antibodies (APC-anti-human IgG Fc antibody, 1:300 dilution for H292 cell; APC-F (ab′) 2 fragment goat anti-human IgG (H+L), 1:500 dilution for NCI-N87 and HT29 cells) for 30 minutes at 4° C. Finally, the cells were washed twice with DPBS and resuspended in FACS buffer for flow cytometry analysis. For analysis, the MFI values versus concentrations were plotted using FlowJo 10 software (FlowJo LLC) and the data were further fitted with four-parameter non-linear regression to obtain EC₅₀ values by GraphPad Prism version 7 for Windows.

[2] = molecular target: T1, TROP2 on tumor cell lines; test: flow cytometry, HT-29 cells
Protocol: as §1

[3] = molecular target: T1, TROP2 on tumor cell lines; test: flow cytometry, H292 cells
Protocol: as §1

B1: TY27571 (bispecific antibody, human IgG1, kappa, N297A)
light: DIQLTQSPSSLSASVGDRVTITCRASQDVSIAVAWYQQKPGKAPKLLIYSASYRYTGVPARFSGSGSGTDFTLTISSLQPEDFATYYCQQHYITPLTFGQGTKVEIKRTVAAPSVFIFPPSDEQLKSGTASVVCLLNNFYPREAKVQWKVDNALQSGNSQESVTEQDSKDSTYSLSSTLTLSKADYEKHKVYACEVTHQGLSSPVTKSFNRGEC
heavy: QVQLLQSGSELKKPGASVKVSCKASGYTFTNYGINWVRQAPGQGLEWLGWIHTYTGEPTYTDDFKGRFVFSLDTSVSTAYLQISSLKADDTAVYYCARGGFGSSYWYFDVWGQGTLVTVSSASTKGPSVFPLAPSSKSTSGGTAALGCLVKDYFPEPVTVSWNSGALTSGVHTFPAVLQSSGLYSLSSVVTVPSSSLGTQTYICNVNHKPSNTKVDKKVEPKSCDKTHTCPPCPAPELLGGPSVFLFPPKPKDTLMISRTPEVTCVVVDVSHEDPEVKFNWYVDGVEVHNAKTKPREEQYASTYRVVSVLTVLHQDWLNGKEYKCKVSNKALPAPIEKTISKAKGQPREPQVYTLPPSRKKLTKNQVKLTCLVKGFYPSDIAVEWESNGQPENNYKTTPPVLDCDGSFFLYSKLTVDKSRWQQGNVFSCSVMHEALHNHYTQKSLSLSPGK
chain: DIQLTQSPSSLSASVGDRVTITCRASQSVDFHGISFLHWYQQKPGKAPKLLIYAASSLQSGVPSRFSGSGSGTDFTLTISSLQPEDFATYYCQQSYRSPRTFGQGTKVEIKGGGGSGGGGSGGGGSGGGGSEVQLVESGGGLVQPGGSLRLSCAASGFSLSTGGVGVSWIRQAPGKGLEWIGEIYHSGSTYYSPSLKSRVTISRDNSKNTLYLQLNSLRAEDTAVYYCARYEYYYYDFDYWGQGTLVTVSSEPKSSDKTHTCPPCPAPELLGGPSVFLFPPKPKDTLMISRTPEVTCVVVDVSHEDPEVKFNWYVDGVEVHNAKTKPREEQYASTYRVVSVLTVLHQDWLNGKEYKCKVSNKALPAPIEKTISKAKGQPREPQVYTDPPSRDELTKNQVSLTCLVDGFYPSDIAVEWESNGQPENCYKTTPPVLDSDGSFFLYSKLTVDKSRWQQGNVFSCSVMHEALHNHYTQDSLSLSPGK
notes: also called anti-TROP2xCD28 BsAb
B1 showed an EC50 [1] of 0.911 nM, an EC50 [2] of 0.559 nM and an EC50 [3] of 0.822 nM.
